Laboratory results as given in article PMC11930357.
Blank lines part the entries; values can stand above or below the substance they belong to.

Tests used:
HP1α = HP1α (UniProt P45973); test: SEC-MALS molar mass (CSD-mediated dimer); settings: sites S11,S12,S13,S14
HP1α ΔCSD, 1-120 = HP1α ΔCSD, 1-120 (UniProt P45973); test: SEC-MALS molar mass; settings: reference: ΔCSD expressed without CK2; sites S11,S12,S13,S14
[1] = molecular target: Phosphorylated CSD deletion mutant of HP1α_S97A (residues 1–120, phosphorylated at Ser11–Ser14) (human) (UniProt P45973); test: SEC-SAXS; Superdex 200 Increase, 20 mM sodium phosphate pH 7.0, 1 mM DTT, 50 mM NaCl; Rg against concentration; profiles fitted with EOM and with reweighted CGMD ensembles (one- or two-molecule systems)

HP1α, sequence (P45973 whole entry, stated change not applied): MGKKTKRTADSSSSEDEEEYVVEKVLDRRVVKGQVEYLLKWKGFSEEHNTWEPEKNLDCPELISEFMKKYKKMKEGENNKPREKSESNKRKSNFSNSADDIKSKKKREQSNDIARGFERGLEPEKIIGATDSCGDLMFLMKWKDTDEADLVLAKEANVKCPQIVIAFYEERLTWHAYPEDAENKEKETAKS
HP1α ΔCSD, 1-120, sequence (P45973 whole entry, stated change not applied, the tested form may be a part): as the sequence (P45973 whole entry, stated change not applied) above

other: molar mass (HP1α; reference: HP1α expressed without CK2, 50 mM NaCl): same; reference 45.7
Substance: HP1α (from UniProt P45973) pHP1α co-expressed with CK2, 50 mM NaCl

other: molar mass (HP1α; reference: HP1α expressed without CK2, 500 mM NaCl): same; reference 44.5
Substance: HP1α (from UniProt P45973) pHP1α co-expressed with CK2, 500 mM NaCl

other: molar mass (HP1α ΔCSD, 1-120): none in both; reference 16.3
Substance: HP1α ΔCSD, 1-120 (from UniProt P45973) pΔCSD co-expressed with CK2

stoichiometry N [1]: 2
Substance: Phosphorylated CSD deletion mutant of HP1α_S97A (residues 1–120, phosphorylated at Ser11–Ser14) (from UniProt P45973 1-120) (domain or fragment)
